The values below are quoted from earlier work in paper PMC12442452.

Read-outs that look alike come from different tables or passages of the source.

By pKa is commonly meant the negative logarithm of the acid dissociation constant.

One data set has as its target His162 (UniProt position 284, SEQLDHGVLLV). In words: kinetics. The following applies: apo (free) enzyme.
In data set [1] the target is T1, Cys25 (UniProt position 147, GQCGSCWAFSA). In words: kinetics. The conditions noted are these: apo (free) enzyme.
The target in data set [2] is T1, Cys25. The following applies: ligand-free cruzain.
Data set [3] has as its target Cys25 (UniProt position 158, GSCGSCWAFSA). The following applies: not stated (apo enzyme implied).

Consider “Cruzain (cruzipain, major cysteine protease) (Trypanosoma cruzi)”, for which the pKa is on record as 6.6 in the data set with His162, 9.7 in the data set with Cys25 [1] and 9.8 in the data set with Cys25 [2].
On to “Papain (Carica papaya (inferred; not stated in the article))”, for which the pKa with Cys25 [3] is recorded as 3.3.
